The text below walks through data of PMC7164962.

This experiment deals with ADHA, alcohol dehydrogenase from Candida magnoliae DSMZ 70638, wild type (Candida magnoliae DSMZ 70638). Kind of experiment: crystal structure; purified enzyme, sitting drop, 20% w/v PEG 3350, 0.2 M sodium citrate; with or without 1 mM NADP+; quaternary structure seen in the crystal.

The substance “ADHA, alcohol dehydrogenase from Candida magnoliae DSMZ 70638, wild type (enzyme)” registered a stoichiometry N of 4.

A word on the stoichiometry N: it is the number of molecules, sites or subunits per partner or assembly.
